Assays:
[1] = biological target: p150^GLUED subunit of dynactin, endogenous (human (endogenous in HEK-293), UniProt Q14203-1 1-1278); test: pull-down
[2] = biological target: dynein heavy chain (DHC), native (human (endogenous in HEK-293), UniProt Q14204 1-4646); test: pull-down

p150^GLUED subunit of dynactin, endogenous, sequence (Q14203 whole entry): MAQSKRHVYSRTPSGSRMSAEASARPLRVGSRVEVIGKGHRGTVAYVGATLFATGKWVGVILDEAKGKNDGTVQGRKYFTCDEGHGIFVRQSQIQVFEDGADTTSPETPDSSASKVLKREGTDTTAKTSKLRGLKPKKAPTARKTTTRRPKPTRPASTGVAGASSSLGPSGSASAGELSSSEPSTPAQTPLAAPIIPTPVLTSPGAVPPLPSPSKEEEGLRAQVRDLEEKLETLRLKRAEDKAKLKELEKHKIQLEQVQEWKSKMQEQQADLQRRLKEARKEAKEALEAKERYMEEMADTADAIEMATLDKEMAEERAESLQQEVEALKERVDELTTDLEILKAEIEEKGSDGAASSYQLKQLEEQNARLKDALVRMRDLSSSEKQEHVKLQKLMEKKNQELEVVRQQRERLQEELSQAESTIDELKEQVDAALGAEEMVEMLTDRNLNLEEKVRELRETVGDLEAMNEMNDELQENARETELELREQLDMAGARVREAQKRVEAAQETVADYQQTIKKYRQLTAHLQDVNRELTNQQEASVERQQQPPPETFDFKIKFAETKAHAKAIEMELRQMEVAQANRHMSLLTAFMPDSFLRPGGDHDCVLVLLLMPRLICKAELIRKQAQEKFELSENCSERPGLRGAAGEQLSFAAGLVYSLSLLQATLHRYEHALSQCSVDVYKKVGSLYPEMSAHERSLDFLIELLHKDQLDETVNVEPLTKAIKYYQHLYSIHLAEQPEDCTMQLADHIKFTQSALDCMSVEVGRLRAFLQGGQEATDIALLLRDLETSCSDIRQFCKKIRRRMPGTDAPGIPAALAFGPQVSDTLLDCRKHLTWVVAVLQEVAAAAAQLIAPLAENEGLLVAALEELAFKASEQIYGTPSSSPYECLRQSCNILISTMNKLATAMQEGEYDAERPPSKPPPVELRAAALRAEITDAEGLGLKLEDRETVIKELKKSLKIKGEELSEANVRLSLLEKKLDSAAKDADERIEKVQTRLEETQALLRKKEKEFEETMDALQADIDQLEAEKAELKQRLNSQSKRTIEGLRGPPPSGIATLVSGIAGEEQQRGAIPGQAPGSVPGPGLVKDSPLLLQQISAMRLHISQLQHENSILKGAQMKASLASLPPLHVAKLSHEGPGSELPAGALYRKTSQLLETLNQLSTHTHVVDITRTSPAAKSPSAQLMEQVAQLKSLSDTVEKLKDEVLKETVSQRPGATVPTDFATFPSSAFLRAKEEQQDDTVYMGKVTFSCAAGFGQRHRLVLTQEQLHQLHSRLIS

B1: His-SEPT9 G domain (aa 283–586) (domain or fragment, human, UniProt Q9UHD8-1 283-586, looked up)
chain: SILEQMRRKAMKQGFEFNIMVVGQSGLGKSTLINTLFKSKISRKSVQPTSEERIPKTIEIKSITHDIEEKGVRMKLTVIDTPGFGDHINNENCWQPIMKFINDQYEKYLQEEVNINRKKRIPDTRVHCCLYFIPATGHSLRPLDIEFMKRLSKVVNIVPVIAKADTLTLEERVHFKQRITADLLSNGIDVYPQKEFDEDSEDRLVNEKFREMIPFAVVGSDHEYQVNGKRILGRKTKWGTIEVENTTHCEFAYLRDLLIRTHMQNIKDITSSIHFEAYRVKRLNEGSSAMANGMEEKEPEAPEM
binding result [1]: binds | binding result [2]: binds

B2: His-SEPT9 NTE domain (aa 1–283) (domain or fragment, human, UniProt Q9UHD8-1 1-283, looked up)
chain: MKKSYSGGTRTSSGRLRRLGDSSGPALKRSFEVEEVETPNSTPPRRVQTPLLRATVASSTQKFQDLGVKNSEPSARHVDSLSQRSPKASLRRVELSGPKAAEPVSRRTELSIDISSKQVENAGAIGPSRFGLKRAEVLGHKTPEPAPRRTEITIVKPQESAHRRMEPPASKVPEVPTAPATDAAPKRVEIQMPKPAEAPTAPSPAQTLENSEPAPVSQLQSRLEPKPQPPVAEATPRSQEATEAAPSCVGDMADTPRDAGLKQAPASRNEKAPVDFGYVGIDS
binding result [1]: binds

B3: His-SEPT9 (recombinant full-length SEPT9 isoform 1) (natural protein, human, UniProt Q9UHD8-1 1-586, looked up)
chain: MKKSYSGGTRTSSGRLRRLGDSSGPALKRSFEVEEVETPNSTPPRRVQTPLLRATVASSTQKFQDLGVKNSEPSARHVDSLSQRSPKASLRRVELSGPKAAEPVSRRTELSIDISSKQVENAGAIGPSRFGLKRAEVLGHKTPEPAPRRTEITIVKPQESAHRRMEPPASKVPEVPTAPATDAAPKRVEIQMPKPAEAPTAPSPAQTLENSEPAPVSQLQSRLEPKPQPPVAEATPRSQEATEAAPSCVGDMADTPRDAGLKQAPASRNEKAPVDFGYVGIDSILEQMRRKAMKQGFEFNIMVVGQSGLGKSTLINTLFKSKISRKSVQPTSEERIPKTIEIKSITHDIEEKGVRMKLTVIDTPGFGDHINNENCWQPIMKFINDQYEKYLQEEVNINRKKRIPDTRVHCCLYFIPATGHSLRPLDIEFMKRLSKVVNIVPVIAKADTLTLEERVHFKQRITADLLSNGIDVYPQKEFDEDSEDRLVNEKFREMIPFAVVGSDHEYQVNGKRILGRKTKWGTIEVENTTHCEFAYLRDLLIRTHMQNIKDITSSIHFEAYRVKRLNEGSSAMANGMEEKEPEAPEM
binding result [1]: binds | binding result [2]: binds
